Experimental data from patent US20240000837A1.

Molecular target: HLA-C1 expressed in the tumor cell membrane (HLA class I on Panc0203 / HPAC tumor cells) (human)
Assay: flow cytometry on Panc02.03 cells, PE-conjugated anti-Fc secondary staining

percent of cells bound: > 60%
Substance: fusion protein encompassing the extracellular domain of KIR2DL2 linked to the Fc portion of an antibody (KIR2DL2-Fc) (from UniProt P43627 22-245) (Fc fusion)
